In PMC2903414 (The Journal of Biological Chemistry, 2010):

Molecular target: Flag-tagged full-length mouse sphingosine 1-phosphate receptor-1 (S1P1) (mouse, UniProt O08530 1-382)
Experiment: co-IP

Sequence of Flag-tagged full-length mouse sphingosine 1-phosphate receptor-1 (S1P1) (O08530 whole entry): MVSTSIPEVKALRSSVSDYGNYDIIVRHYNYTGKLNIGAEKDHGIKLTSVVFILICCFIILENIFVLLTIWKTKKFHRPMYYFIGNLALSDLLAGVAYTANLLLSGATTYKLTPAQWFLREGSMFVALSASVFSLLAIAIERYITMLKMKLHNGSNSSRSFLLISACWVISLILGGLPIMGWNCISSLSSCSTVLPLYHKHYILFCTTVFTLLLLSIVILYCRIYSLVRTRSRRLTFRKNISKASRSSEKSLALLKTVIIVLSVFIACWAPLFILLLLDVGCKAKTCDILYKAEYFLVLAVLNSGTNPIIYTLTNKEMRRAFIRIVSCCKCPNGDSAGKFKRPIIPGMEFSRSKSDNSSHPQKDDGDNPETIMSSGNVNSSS

B1: HA-tagged mouse CD69 (natural protein, UniProt P37217 1-199, looked up)
chain: MDSENCSITENSSSHLERGQKDHGTSIHFEKHHEGSIQVSIPWAVLIVVLITSLIIALIALNVGKYNCPGLYEKLESSDHHVATCKNEWISYKRTCYFFSTTTKSWALAQRSCSEDAATLAVIDSEKDMTFLKRYSGELEHWIGLKNEANQTWKWANGKEFNSWFNLTGSGRCVSVNHKNVTAVDCEANFHWVCSKPSR
  fold interaction compared with the control proteins NKRp1A and S1P3: 10 fold
